Laboratory results taken from US20230257448A1 (TWIST BIOSCIENCE, published 2023).

Target: T1, S1 monomer of SARS-CoV-2 Omicron (SARS-CoV-2, UniProt P0DTC2 16-685)
T1 construct: domain: S1
Experiment: SPR (Carterra LSA, antibody amine-coupled to the chip, spike protein as analyte)

B1: 3-31 (Fc fusion)
chain: EVQLVESGGGLVQPGGSLRLSCAASGSTFSINAMGWFRQAPGKEREFVAGITSSGGYTNYADSVKGRFTISADNSKNTAYLQMNSLKPEDTAVYYCAADGVPEYSDYASGPVWGQGTLVTVSS
binding result: no binding
